Consider four proteins from publication doi:10.64898/2025.12.03.692196v2.

Substrate in data set [1]: Nc1ncnc2c1ncn2[C@@H]1O[C@H](COP(=O)(O)OP(=O)(O)OP(=O)(O)O)[C@@H](O)[C@H]1O
The experiment in a line: purified protein, by the assay type.

Substrate in data set [2]: C[C@@H](O)[C@H](N)C(=O)O
Description: LC-MS of AMP formed from TC-AMP, Michaelis-Menten. Type of data set: biochemical, Homo sapiens. The following applies: 250 µM ATP, 50 mM NaHCO3, 10 mM MgCl2, Tricine pH 8.5, 37 °C.

B1: YRDCWT (human YRDC, ΔN43) T89A (Homo sapiens; T89A) (protein)
chain: MSPARRCRGMRAAVAASVGLSEGPAGSRSGRLFRPPSPAPAAPGARLLRLPGSGAVQAASPERAGWTEALRAAVAELRAGAVVAVPTDALYGLACAASCSAALRAVYRLKGRSEAKPLAVCLGRVADVYRYCRVRVPEGLLKDLLPGPVTLVMERSEELNKDLNPFTPLVGIRIPDHAFMQDLAQMFEGPLALTSANLSSQASSLNVEEFQDLWPQLSLVIDGGQIGDGQSPECRLGSTVVDLSVPGKFGIIRPGCALESTTAILQQKYGLLPSHASYL
Regarding B1, in data set [1], the Km came out at 230.7 ± 217.6 µM, the kcat is 0.02 ± 0.001 s⁻¹ and the kcat/Km came to 90 ± 80 M⁻¹ s⁻¹.

B2: YRDCS195A (Homo sapiens; S238A) (protein)
chain: MSPARRCRGMRAAVAASVGLSEGPAGSRSGRLFRPPSPAPAAPGARLLRLPGSGAVQAASPERAGWTEALRAAVAELRAGAVVAVPTDTLYGLACAASCSAALRAVYRLKGRSEAKPLAVCLGRVADVYRYCRVRVPEGLLKDLLPGPVTLVMERSEELNKDLNPFTPLVGIRIPDHAFMQDLAQMFEGPLALTSANLSSQASSLNVEEFQDLWPQLSLVIDGGQIGDGQSPECRLGATVVDLSVPGKFGIIRPGCALESTTAILQQKYGLLPSHASYL
Turning to B2, in data set [1], the Km came out at 711.8 ± 175.5 µM, the catalytic constant (kcat) turned out to be 0.005 ± 0.0009 s⁻¹ and the kcat/Km was 7 ± 2 M⁻¹ s⁻¹.

B3: YRDCWT (human YRDC, ΔN43) (Homo sapiens; R253K) (protein)
chain: GARLLRLPGSGAVQAASPERAGWTEALRAAVAELRAGAVVAVPTDTLYGLACAASCSAALRAVYRLKGRSEAKPLAVCLGRVADVYRYCRVRVPEGLLKDLLPGPVTLVMERSEELNKDLNPFTPLVGIRIPDHAFMQDLAQMFEGPLALTSANLSSQASSLNVEEFQDLWPQLSLVIDGGQIGDGQSPECRLGSTVVDLSVPGKFGIIKPGCALESTTAILQQKYGLLPSHASYL
In the case of B3, in data set [1], the Km worked out at 737.5 ± 521.2 µM, the kcat came to 0.005 ± 0.003 s⁻¹ and the kcat/Km was determined as 7 ± 6 M⁻¹ s⁻¹.

B4: YRDCWT (human YRDC, ΔN43) (Homo sapiens) (protein)
chain: GARLLRLPGSGAVQAASPERAGWTEALRAAVAELRAGAVVAVPTDTLYGLACAASCSAALRAVYRLKGRSEAKPLAVCLGRVADVYRYCRVRVPEGLLKDLLPGPVTLVMERSEELNKDLNPFTPLVGIRIPDHAFMQDLAQMFEGPLALTSANLSSQASSLNVEEFQDLWPQLSLVIDGGQIGDGQSPECRLGSTVVDLSVPGKFGIIRPGCALESTTAILQQKYGLLPSHASYL
With B4, the Michaelis constant (Km) in data set [2] turned out to be 7800 µM.

What is called Km is the concentration of substrate that gives half-maximal velocity. The kcat is the number of substrate molecules converted per active site and unit of time at saturation. By kcat/Km is commonly meant the second-order rate constant that governs catalysis at low substrate concentration.
